Source: patent publication US8518892B2, “Methods to treat symptoms of pathophysiology related to body mass” (Board of Supervisors of Louisiana State University and …, priority 2005, dated 2013)

Columns and labels:
[1] = tested on: diet induced obese (DIO) C57BL/6J mice; assay: Enho 1 ip for 3 days in diet induced obese C57BL/6J mice (Examples 19-21); type: in vivo, mouse
Description: (§1) The effect of Enho-1 upon weight loss was tested over the course of 3 days using diet induced obese (DIO) C57BL/6J mice (Jackson Laboratories, Bar Harbor, Me.). The mice were fed Research Diets 12492 (60% kJ/fat) for 12 weeks, resulting in obesity and moderate hyperglycemia in the animals. The mice were approximately 20-22 weeks of age and 30-50 g in weight at the start of the experiment. Fasting blood glucose was determined to be approximately 170-220 mg/dL. Six control mice received vehicle only while six test mice each received doses of either 90 nmol/kg/d, 900 nmol/kg/d or 9000 nmol/kg/d. The injections were given as 3 ip injections at 0600, 1400 and 2000 h on days 1 and 2; over the 3 day period, the mice received a total of 7 injections. All animals were euthanized 5 hours after the last injection given the morning of the third day. Food was removed after the final injection.
as §1, with “insulin and glucose” for “weight loss”
The HOMA-IR for each treatment was calculated using the following formula: ((glucose mg/dL÷18)×(insulin ng/ml×25.05))÷22.5
as §1, with “liver weight, liver lipid content and liver TG” for “weight loss”

obese (ob/ob) mice = assay: Enho 1 ip for 8 days in obese (ob/ob) mice, serum lipids (Example 22); type: in vivo, mouse
Description: The effect of Enho-1 upon liver serum lipid content was tested over the course of 8 days using obese (ob/ob) mice. The mice were fed Research Diets 12450 and were approximately 9-10 weeks of age at the start of the experiment. Control mice received vehicle only while test mice each received doses of either 90 nmol/kg/d, 900 nmol/kg/d or 9000 nmol/kg/d. The injections were given as 3 ip injections at 0800, 1200 and 1600 h for 7 days. On day 8, the mice were given the 0800 h injection and were sacrificed 1-3 h later, at which time blood samples were taken.
Blood glucose levels were measured using an Accu-Chek glucometer. Insulin levels were measured by ELISA (Mercodia Mouse Insulin ELISA, ALPCO) while triglycerides were measured using a Triglyceride L-Type TG H kit (Wako Diagnostics).

[2] = 90 nmol/kg/d ip, listed as Enho-1
[3] = 900 nmol/kg/d ip, listed as Enho-1
[4] = 9000 nmol/kg/d ip, listed as Enho-1

B1: Enho 1: human Enho 1, a 76 amino acid peptide having the sequence SEQ ID NO: 14 (peptide, listed as Homo sapiens)
chain: MGAAISQGALIAIVCNGLVGFLLLLLWVILCWACHSRSADVDSLSESSPNSSPGPCPEKAPPPQKPSHEGSYLLQP
[1]; 90 nmol/kg/d ip
  Blood glucose: 204 mg/dL
  Delta body weight: 2.9%
  HOMA-IR: 50
  HOMA-IR decrease as compared to the control group: 15%
  Insulin: 3.8 ng/mL
  Liver TG: 57 mg/g
  Liver TG total: 86 mg/g
  Liver lipid: 126 mg/g
  Liver lipid total: 188 mg/g
  Liver weight: 1.5 grams
  Liver weight % body weight: 3.6%
  Weight (pre-treatment): 42.9 g
  Weight (termination): 41.7 g
[1]; [2]
  Blood glucose: 204 ± 7 mg/dL
  HOMA-IR: 50 ± 5
  HOMA-IR decrease as compared to the control group: (↓ 15%)
  Insulin: 3.8 ± 0.4 ng/mL
  Liver TG: 57 ± 8 mg/g
  Liver TG total: 86 ± 14 mg/g
  Liver lipid: 126 ± 8 mg/g
  Liver lipid total: 188 ± 13 mg/g
  Liver weight: 1.5 ± 0.0 grams
  Liver weight % body weight: 3.6 ± 0.1%
  Weight (pre-treatment): 42.9 ± 1.2 g
  Weight (termination): 41.7 ± 0.9 g
[1]; 900 nmol/kg/d ip
  Delta body weight: 3.5%
  HOMA-IR: 42
  Insulin: 4.2 ng/mL
  Liver TG: 48 mg/g
  Liver TG total: 66 mg/g
  Liver lipid: 137 mg/g
  Liver lipid total: 226 mg/g
  Liver weight: 1.5 grams
  Liver weight % body weight: 3.5%
  Weight (pre-treatment): 42.8 g
  Weight (termination): 41.3 g
  blood glucose levels decrease: approximately 15%
  insulin levels reduction: about 14%
[1]; 900 nmol/kg/d ip, P < 0.05 vs 90
  Blood glucose: 166 mg/dL
[1]; 900 nmol/kg/d ip, P < 0.05 vs 90, listed as Enho-1
  Blood glucose: 166 ± 13 mg/dL
[1]; [3]
  HOMA-IR: 42 ± 3
  Insulin: 4.2 ± 0.5 ng/mL
  Liver TG: 48 ± 12 mg/g
  Liver TG total: 66 ± 14 mg/g
  Liver lipid: 137 ± 34 mg/g
  Liver lipid total: 226 ± 77 mg/g
  Liver weight: 1.5 ± 0.2 grams
  Liver weight % body weight: 3.5 ± 0.2%
  Weight (pre-treatment): 42.8 ± 2.9 g
  Weight (termination): 41.3 ± 2.7 g
[1]; 900 nmol/kg/d ip, p<0.02
  HOMA-IR decrease as compared to the control group: 29%
[1]; 900 nmol/kg/d ip, p<0.02, listed as Enho-1
  HOMA-IR decrease as compared to the control group: (↓ 29%)
[1]; 9000 nmol/kg/d ip
  Blood glucose: 198 mg/dL
  Delta body weight: 4.1%
  HOMA-IR: 52
  HOMA-IR decrease as compared to the control group: 12%
  Insulin: 4.2 ng/mL
  Liver TG: 47 mg/g
  Liver TG total: 63 mg/g
  Liver lipid: 139 mg/g
  Liver lipid total: 230 mg/g
  Liver weight: 1.4 grams
  Liver weight % body weight: 3.4%
  Weight (pre-treatment): 42.7 g
  Weight (termination): 40.9 g
  liver TG reduction as compared to the control group: 18-19%
[1]; [4]
  Blood glucose: 198 ± 9 mg/dL
  HOMA-IR: 52 ± 4
  HOMA-IR decrease as compared to the control group: (↓ 12%)
  Insulin: 4.2 ± 0.3 ng/mL
  Liver TG: 47 ± 9 mg/g
  Liver TG total: 63 ± 10 mg/g
  Liver lipid: 139 ± 42 mg/g
  Liver lipid total: 230 ± 96 mg/g
  Liver weight: 1.4 ± 0.2 grams
  Liver weight % body weight: 3.4 ± 0.3%
  Weight (pre-treatment): 42.7 ± 1.6 g
  Weight (termination): 40.9 ± 1.6 g
[1]; 9000 nmol/kg/d ip, p<0.05, 1-tailed t-test
  serum TG reduction as compared to the control group: 20%
Obese (ob/ob) mice; 90 nmol/kg/d ip
  TG (blood triglyceride level): 19.4 mg/dL
  TG decrease in comparison with the control: 34%
Obese (ob/ob) mice; [2]
  TG (blood triglyceride level): 19.4 ± 2.2 mg/dL
  TG decrease in comparison with the control: (↓ 34%)
Obese (ob/ob) mice; 900 nmol/kg/d ip
  TG (blood triglyceride level): 18.4 mg/dL
  TG decrease in comparison with the control: 38%
Obese (ob/ob) mice; [3]
  TG (blood triglyceride level): 18.4 ± 2.3 mg/dL
  TG decrease in comparison with the control: (↓ 38%)
Obese (ob/ob) mice; 9000 nmol/kg/d ip
  TG (blood triglyceride level): 22.0 mg/dL
  TG decrease in comparison with the control: 26%
Obese (ob/ob) mice; [4]
  TG (blood triglyceride level): 22.0 ± 2.2 mg/dL
  TG decrease in comparison with the control: (↓ 26%)
